# Data published in IntAct's records for PubMed 22536782.
# B1: GRB2-associated-binding protein 1 (Homo sapiens), Q13480 (parent)
# chain: MSGGEVVCSGWLRKSPPEKKLKRYAWKRRWFVLRSGRLTGDPDVLEYYKNDHAKKPIRIIDLNLCQQVDAGLTFNKKEFENSYIFDINTIDRIFYLVADSEEEMNKWVRCICDICGFNPTEEDPVKPPGSSLQAPADLPLAINTAPPSTQADSSSATLPPPYQLINVPPHLETLGIQEDPQDYLLLINCQSKKPEPTRTHADSAKSTSSETDCNDNVPSHKNPASSQSKHGMNGFFQQQMIYDSPPSRAPSASVDSSLYNLPRSYSHDVLPKVSPSSTEADGELYVFNTPSGTSSVETQMRHVSISYDIPPTPGNTYQIPRTFPEGTLGQTSKLDTIPDIPPPRPPKPHPAHDRSPVETCSIPRTASDTDSSYCIPTAGMSPSRSNTISTVDLNKLRKDASSQDCYDIPRAFPSDRSSSLEGFHNHFKVKNVLTVGSVSSEELDENYVPMNPNSPPRQHSSSFTEPIQEANYVPMTPGTFDFSSFGMQVPPPAHMGFRSSPKTPPRRPVPVADCEPPPVDRNLKPDRKVKPAPLEIKPLPEWEELQAPVRSPITRSFARDSSRFPMSPRPDSVHSTTSSSDSHDSEENYVPMNPNLSSEDPNLFGSNSLDGGSSPMIKPKGDKQVEYLDLDLDSGKSTPPRKQKSSGSGSSVADERVDYVVVDQQKTLALKSTREAWTDGRQSTESETPAKSVK
# Variants of: B1
# Conditions: with grb2_human GRB2, P62993
row,effect of a mutation on the interaction,Variant
1,decreasing interaction,L523A
2,decreasing interaction,N522A
3,decreasing interaction,R521A
4,decreasing interaction,K524A

# Variants of: B1
# Conditions: with grb2_human GRB2, P62993
# Remark: another data set of the same source
row,effect of a mutation on the interaction,Variant
1,increasing interaction,R344A
2,increasing interaction,K347A
3,increasing interaction,P345A
4,increasing interaction,P346A
